Measurements: article PMC4468220, “Defective Proteasome Delivery of Polyubiquitinated Proteins by Ubiquilin-2 Proteins Containing ALS Mutations” (PLoS ONE, 2015)

How the values were obtained:
Assay in all cases: pull-down; 4 μg GST protein with 2 μg HIS-S5a in 800μL 2% Chaps buffer (20mM Tris pH 8.0, 150mM NaCl, 2mM MgCl2, 10% glycerol, 2.0% Chaps), glutathione agarose beads, 2 hrs at room temperature; washes with PBS, 2% Tween-20, 200 mM KCl; blot for S5a
Conditions in all cases: both partners purified
[1] = target: T1, GST-ubiquilin-2 P506T (human, UniProt Q9UHD9 1-624, P506T)
T1 construct: ubiquilin-2, human, full-length cDNA, 624 aa, ALS-linked mutation P506T; pGST/His T1 vector; also called P506T mutation; source: E. coli BL21(DE3), purified (glutathione-agarose); not shown: GST, N-terminal, kept

[2] = target: T2, GST-ubiquilin-2 P509S (human, UniProt Q9UHD9 1-624, P509S)
T2 construct: ubiquilin-2, human, full-length cDNA, 624 aa, ALS-linked mutation P509S; pGST/His T1 vector; also called P509S mutation; source: E. coli BL21(DE3), purified (glutathione-agarose); not shown: GST, N-terminal, kept

[3] = target: T3, GST-ubiquilin-2 P525S (human, UniProt Q9UHD9 1-624, P525S)
T3 construct: ubiquilin-2, human, full-length cDNA, 624 aa, ALS-linked mutation P525S; pGST/His T1 vector; also called P525S mutation; source: E. coli BL21(DE3), purified (glutathione-agarose); not shown: GST, N-terminal, kept

[4] = target: T4, GST-ubiquilin-2 wild type (human, UniProt Q9UHD9 1-624)
T4 construct: ubiquilin-2, human, full-length cDNA, 624 aa; cloned downstream of GST in the pGST/His T1 vector; also called GST-fusion protein encoding WT ubiquilin-2; source: E. coli BL21(DE3), purified (glutathione-agarose); not shown: GST, N-terminal, kept

[5] = target: T5, GST-ubiquilin-2 P497H (human, UniProt Q9UHD9 1-624, P497H)
T5 construct: ubiquilin-2, human, full-length cDNA, 624 aa, ALS-linked mutation P497H; pGST/His T1 vector; also called P497H mutation; source: E. coli BL21(DE3), purified (glutathione-agarose); not shown: GST, N-terminal, kept

[6] = target: T6, GST-ubiquilin-2 P497S (human, UniProt Q9UHD9 1-624, P497S)
T6 construct: ubiquilin-2, human, full-length cDNA, 624 aa, ALS-linked mutation P497S; pGST/His T1 vector; also called P497S mutation; source: E. coli BL21(DE3), purified (glutathione-agarose); not shown: GST, N-terminal, kept

Measured: binding result

T4 sequence (Q9UHD9 whole entry, the tested form may be a part): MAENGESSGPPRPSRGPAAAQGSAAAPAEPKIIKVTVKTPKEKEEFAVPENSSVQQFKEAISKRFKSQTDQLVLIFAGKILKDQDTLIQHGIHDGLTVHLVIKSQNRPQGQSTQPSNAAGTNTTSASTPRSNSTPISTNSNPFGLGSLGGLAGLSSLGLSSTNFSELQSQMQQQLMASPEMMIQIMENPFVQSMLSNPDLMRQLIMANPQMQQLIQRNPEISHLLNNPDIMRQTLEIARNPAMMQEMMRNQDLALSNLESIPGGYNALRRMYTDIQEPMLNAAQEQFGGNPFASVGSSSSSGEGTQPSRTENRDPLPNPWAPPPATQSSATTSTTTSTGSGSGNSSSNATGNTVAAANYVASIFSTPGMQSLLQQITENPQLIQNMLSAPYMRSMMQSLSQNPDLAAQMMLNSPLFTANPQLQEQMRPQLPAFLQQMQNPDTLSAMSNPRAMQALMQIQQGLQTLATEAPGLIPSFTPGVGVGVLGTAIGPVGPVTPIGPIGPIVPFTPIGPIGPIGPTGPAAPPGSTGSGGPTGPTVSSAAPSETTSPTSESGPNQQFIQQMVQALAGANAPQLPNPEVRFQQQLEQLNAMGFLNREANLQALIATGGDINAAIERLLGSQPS
T1 sequence (Q9UHD9 whole entry P506T): as the sequence (Q9UHD9 whole entry, the tested form may be a part) above, with P506T counted along it
T2 sequence (Q9UHD9 whole entry P509S): as the sequence (Q9UHD9 whole entry, the tested form may be a part) above, with P509S counted along it
T3 sequence (Q9UHD9 whole entry P525S): as the sequence (Q9UHD9 whole entry, the tested form may be a part) above, with P525S counted along it
T6 sequence (Q9UHD9 whole entry P497S): as the sequence (Q9UHD9 whole entry, the tested form may be a part) above, with P497S counted along it
T5 sequence (Q9UHD9 whole entry P497H): as the sequence (Q9UHD9 whole entry, the tested form may be a part) above, with P497H counted along it

B1: HIS-tagged human S5a protein (natural protein, UniProt P55036 1-377, looked up)
chain: MVLESTMVCVDNSEYMRNGDFLPTRLQAQQDAVNIVCHSKTRSNPENNVGLITLANDCEVLTTLTPDTGRILSKLHTVQPKGKITFCTGIRVAHLALKHRQGKNHKMRIIAFVGSPVEDNEKDLVKLAKRLKKEKVNVDIINFGEEEVNTEKLTAFVNTLNGKDGTGSHLVTVPPGPSLADALISSPILAGEGGAMLGLGASDFEFGVDPSADPELALALRVSMEEQRQRQEEEARRAAAASAAEAGIATTGTEDSDDALLKMTISQQEFGRTGLPDLSSMTEEEQIAYAMQMSLQGAEFGQAESADIDASSAMDTSEPAKEEDDYDVMQDPEFLQSVLENLPGVDPNNEAIRNAMGSLASQATKDGKKDKKEEDKK
notes: S5a subunit of the 19S cap of the proteasome, human, entire open reading frame (377 aa); cloned in pET-21a; also called His-S5a; HIS-S5a; source: E. coli BL21(DE3), purified (Ni-NTA agarose)
binds: all assays above
